This experiment addresses human ILT3 (binding and competition assays, construct not stated) (human, UniProt Q8NHJ6 22-259). The experiment in a line: binding to hILT3 (relative binding).

Changes are numbered by the printed parent chain.

B1: h5E5-42 (antibody, V domains shown)
VH: QVQLVQSGAEVKKPGASVKVSCKASGYSFSGFYIDWVKQPPGKGLEWIGYIFPSNGETSYNQKFKGRVTMTVDKSTSTVYMELSSLRSEDTAVYYCARQAFYYFDYWGQGTTVTVSS
VL: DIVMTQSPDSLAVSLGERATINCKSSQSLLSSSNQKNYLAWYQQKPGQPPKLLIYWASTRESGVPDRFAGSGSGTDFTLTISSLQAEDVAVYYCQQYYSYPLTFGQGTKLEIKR
A word on the EC50: it is the concentration needed to bring the measured effect to its halfway point. Lower therefore signals higher potency in that assay. In turn, B1 gave an EC50 of 0.05 µg/mL.

B2: h5E5-83 (antibody, V domains shown)
VH: B1 VH with Q1E, V68A
VL: DIVMTQSPDSLAVSLGERATINCKSSQSLLSSSNQKNYLAWYQQKPGQAPRLLIYWASTRESGVPDRFAGSGSGTDFTLTISSLQAEDVAVYYCQQYYSYPLTFGQGTKLEIKR
B2 showed an EC50 of 0.1 µg/mL.

B3: h5E5-84 (antibody, V domains shown)
VH: B1 VH with Q1E, V68A
VL: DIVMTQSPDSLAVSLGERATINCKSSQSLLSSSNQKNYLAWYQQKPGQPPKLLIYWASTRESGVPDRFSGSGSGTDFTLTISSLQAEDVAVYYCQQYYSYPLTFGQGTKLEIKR
Turning to B3, a half-maximal effect (EC50) was put at 0.08 µg/mL.

B4: h5E5-22 (antibody, V domains shown)
VH: B1 VH with Q1E, S30T, V68A
VL: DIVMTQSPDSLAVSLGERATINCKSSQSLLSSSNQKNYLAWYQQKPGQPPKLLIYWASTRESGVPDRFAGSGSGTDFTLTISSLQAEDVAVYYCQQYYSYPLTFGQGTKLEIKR
For B4, the midpoint of the response, the EC50, lay at 0.08 µg/mL.

B5: h5E5-73 (antibody, V domains shown)
VH: B1 VH with S30T, Y106S
VL: B2 VL
B5: a half-maximal effect (EC50) was put at 0.09 µg/mL.

Values taken from patent US20250277032A1 (published 2025).
